Results published in the DeepSol protein solubility set.

Assay: soluble on expression in E. coli; label from the status in PepcDB or PDB records

Sequence | soluble on expression in E. coli
MTESVARLRGEQLTLGYGKYTVAENLTVEIPDGHFTAIIGPNGCGKSTLLRTLSRLMTPAHGHVWLDGEHIQHYASKEVARRIGLLAQNATTLGDITVQELVARGRYPHQPLFTRWRKEDEEAVTKAMQATGITHLADQSVDTLSGGQRQRAWIAMVLAQETAIMLLDEPTTWLDISHQIDLLELLSELNREKGYTLAAVLHDLNQACRYASHLIALREGKIVAQGAPKEIVTAELIERIYGLRCMIIDDPVAGTPLVVPLGRTAPSTANS | not soluble
MEIAFLLNGETRRVRIEDPTQSLLELLRAEGLTGTKEGCNEGDCGACTVMIRDAAGSRAVNACLMMLPQIAGKALRTIEGIAAPDGRLHPVQQAMIDHHGSQCGFCTPGFIVSMAAAHDRDRKDYDDLLAGNLCRCTGYAPILRAAEAAAGEPPADWLQADAAFTLAQLSSGVRGQTAPAFLPETSDALADWYLAHPEATLIAGGTDVSLWVTKALRDLPEVAFLSHCKDLAQIRETPDGYGIGAGVTIAALRAFAEGPHPALAGLLRRFASEQVRQVATIGGNIANGSPIGDGPPALIAMGASLTLRRGQERRRMPLEDFFLEYRKQDRRPGEFVESVTLPKSAPGLRCYKLSKRFDQDISAVCGCLNLTLKGSKIETARIAFGGMAGVPKRAAAFEAALIGQDFREDTIAAALPLLAQDFTPLSDMRASAAYRMNAAQAMALRYVRELSGEAVAVLEVMP | soluble
MKNFLLLTLILLTACNNSEENTQSIIKNDINKTIIDEEYVNLEPINQSNISFTKHSWVQTCGTQQLLTEQNKESISLSVVAPRLDDDEKYCFDFNGVSNKGEKYITKVTLNVVAPSLEVYVDHASLPTLQQLMDIIKSEEENPTAQRYIAWGRIVPTDEQMKELNITSFALINNHTPADLVQEIVKQAQTKHRLNVKLSSNTAHSFDNLVPILKELNSFNNVTVTNIDLYDDGSAEYVNLYNWRDTLNKTDNLKIGKDYLEDVINGINEDTSNTGTSSVYNWQKLYPANYHFLRKDYLTLEPSLHELRDYIGDSLKQMQWDGFKKFNSKQQELFLSIVNFDKQKLQNEYNSSNLPNFVFTGTTVWAGNHEREYYAKQQINVINNAINESSPHYLGNSYDLFFKGHPGGGIINTLIMQNYPSMVDIPSKISFEVLMMTDMLPDAVAGIASSLYFTIPAEKIKFIVFTSTETITDRETALRSPLVQVMIKLGIVKEENVLFWADLPNCETGVCIAV | soluble
MGSDKIHHHHHHMDVDLNELAGQFASGFLTVDGVYRTTLEAGRVLGHTRAYPTPKSGFLFALKGEASFVFNGTAYHLSPGKVVHGGKNMELIVKVGPAAFEYCLIHYTLHTRSNHPNDTDSHFLLEPGENLAITEKLDLLHRIKSTPGNFPEIQAKALFYTIFHDMLICARNRLNRESQLVIEQVVEYIHHHYMEPMTVKKLADMSGMGVKPFSYLFKKYIGMFPIDYLIQYRLKRAKNLLVSSNSSIADIAESIGYLDALYFSRLFKKHIGCSPTAFRAQMGNCPSDDQ | not soluble
MGSDKIHHHHHHMHRSKAALVLAGGGVAGAAYEIGALCAIDQVLEHLSVNEFDVYVGTSAGALISACLANNMSPRTLISVLESSLLGIDQLEPHHLYQLNITDLLYRAAHLPGALVQAIQRWVREGGEVSLLDLIETVAVGLPTGLYDSRSLEQYLRAALEQPGRSNRFADLDHELMIVATDLDTGERAIFGLPPLDNVPISLAVCASAAIPIFYRPVRIGDHDYIDGGLRGTASLDVAIERGAELIVCINPMVPFDNRRHPPGAAISDQGIQRIGNQVFRTFIHAGLHYHIKQVRRRHPEVDIILIEPSRQDRTMFAENTMRFHTRMTIARHGFESVARQLCEHYPYYRAMLARHGITISDERIRQDLRNLQMAGDNPHLVRAALVTGGSLHTAPAGLASTLAELDRLLSRLEVTR | not soluble
MRQIKVVLIGGGTGLSVMARGLREFPIDITAIVTVADNGGSTGKIRDEMDIPAPGDIRNVIAALSDSESVLSQLFQYRFEENQISGHSLGNLLIAGMTNITNDFGHAIKALSKILNIKGRVIPSTNTSVQLNAVMEDGEIVFGETNIPKKHKKIDRVFLEPNDVQPMEEAIDALREADLIVLGPGSLYTSVISNLCVNGISDALIHSDAPKLYVSNVMTQPGETDGYSVKDHIDAIHRQAGQPFIDYVICSTQTFNAQVLKKYEEKHSKPVEVNKAELEKESINVKTSSNLVEISENHLVRHNTKVLSTMIYDIALELISTIPFVPSDKRKLEHHHHHH | soluble
MGSDKIHHHHHHMTTTKKTGERLIKKYPNRRLYDTETSTYITLTDVKQLVLEQEDFKVIDAKSSEDLTRSILLQIILEEESGGVPMFSSSMLSQIIRFYGHAMQGMMGTYLEKNIQAFIDIQSKLADQSKNLYENNAMNPEVWSQFMNMQAPMMQGMMTSYIEQSKNMFVQMQEQMQNQAKTMFSSFPFKPATPPGSEPEKK | not soluble
YEVKVKLADIQADPNSPLYSAKSFDELGLAPELLKGIYAMKFQKPSKIQERALPLLLHNPPRNMIAQSQSGTGKTAAFSLTMLTRVNPEDASPQAICLAPSRELARQTLEVVQEMGKFTKITSQLIVPDSFEKNKQINAQVIVGTPGTVLDLMRRKLMQLQKIKIFVLDEADNMLDQQGLGDQCIRVKRFLPKDTQLVLFSATFADAVRQYAKKIVPNANTLELQT | soluble
MSLVKTRILIISDTHGSKPKPKSDNSPSTEDELNQEDVTKVITGWRDPLPEADVVIHCGDLTKRTTIPEFEQTFSVLRSIKAPLKLAIAGNHDTALDEEHWVNKYGGSKETIDKVKKIVREAETDGVKYLPEGVHEFTLANGALLKVYASPWTPAYGGWAFQYKNGHDFNIPPGMDVAVTHGPPRGILDFAGRAGTHAGCPQLLAAVARAKPKIHCFGHIHEAWGMHHVTWDGDEIDLARSQYRGLKGLRPNRVTQGKETARMTREKLIEMSKQRAVRLDLTQGINRSIAGKQTLFVNAAIMSIRYRPVQLPWIIDVDLKAREGHHHHHH | soluble
MTAIAPVITIDGPSGAGKGTLCKAMAEALQWHLLDSGAIYRVLALAALHHHVDVASEDALVPLASHLDVRFVSTNGNLEVILEGEDVSGEIRTQEVANAASQVAAFPRVREALLRRQRAFRELPGLIADGRDMGTVVFPDAPVKIFLDASSEERAHRRMLQLQEKGFSVNFERLLAEIKERDDRDRNRAVAPLVPAADALVLDSTTLSIEQVIEKALQYARQKLALA | soluble
MGSDKIHHHHHHMEKTMDRIYKIGGHCFALPDERLMEAVDGISGFKPFVWQPDLVSAKDVYEGAWLPDFTVWEGNGWGFPAFQRKSYGFGYEDVTGTFGVSGDSFLLELAPQGEPSLYLRTMGGTGRGICLYGNYSPRLLRFALWMGYGLMTVRKDTVALHGSCIVYKGKAVLFLGESGTGKSTHTRLWRENIAGSKLLNDDSPIVRYEEGGVWVYGSPWSGKTPCYKAERYPLAGCVRLSQAPYNKIRRLNTLQAYAALHPSAPPAFAYEEELYCGVCSLLEKMVSSIPVYHLECLPDAEAVKLVCRTLYGDGYEADSE | not soluble
MSLSDYKVGEELSDKEGVEYFKELSKRPVQEWPNKNLSINDVPKGKQGDLIRYGIELLSKTESTLGPYSKLKKTSNEVNCISCHMDNDGNGLPGTKKYVIPFLNILNNYPRLDIETMKIISVEDRIRGMGGTDSHRFPNDSKEMKAILAYFKWLKEAYGIKDGVKLEGDFFAKMNFPNRPADPVRGKKLFEENCVACHGERGLGVKNDNYEQGSGHLYPSLLIYPDGGHMAMIPFLARFLKSAMPFGASADNPILSDEDALDIAAYVNTGFVRMPITTTENRAGLDTAYSKSPSLKPEYFASPQQNLDPKEYIKVKYGPWKNPNHFPGEGHHHHHH | soluble
MGSDKIHHHHHHMRFYTKTHKYYCGIDLHARKKYVCILDSEGTVLVHREINCNPESFLRLVAPYREDLVVGVECMFAWYWLADLCRNEKIEFVLGHALYMKAVHGGKAKSDKIDAHKIAVLLRGGMFPLAYVYPPEMRATRDLLRRRNFFVRKRAELMAHIQNTVTQYNLAPLGIDLGVEENRHEVAQLFHDPEVRKIIEIDVAMIDAFDDVINVLEPDIEKTARQHNLHALKLLRSINGVGKVLGLVMLYEIHDINRFPTVQDFSSYCRLVKCAHESAGKKKGVGGSKIGNVHLKWAFSEAAVFFVRHNPQAKILMEKLVKIHGKGKAISILAHKLARAIFYMLKNNVPFDREKFLATA | not soluble
MSSMVEVEHWNTLRLRIYIGENDKWEGRPLYKVIVEKLREMGIAGATVYRGIYGFGKKSRVHSSDVIRLSTDLPIIVEVVDRGHNIEKVVNVIKPMIKDGMITVEPTIVLWVGTQEEIKKFEEDAIAERQ | soluble
